Assay results: patent WO2011083140A1 (dated 2011)
Several values for one entry are separate records, joined by “and”; a condition that tells them apart may be missing. Identical values can stand only once.

How the values were obtained:
CXCR4 V196E = molecular target: T1, CXCR4 V196E (human, UniProt P61073 1-352); assay: flow cytometry on transiently transfected HEK293T cells, Myc-tag detection
T1 construct: whole, on cells

CXCR4 D187V = molecular target: T2, CXCR4 D187V (human, UniProt P61073 1-352); assay: as above
T2 construct: whole, on cells; Printed as Dl 87V in this copy

CXCR4 F189V = molecular target: T3, CXCR4 F189V (human, UniProt P61073 1-352); assay: as above
T3 construct: whole, on cells

human CXCR4 [1] = molecular target: T4, human CXCR4 (human, UniProt P61073 1-352); assay: SDF-1 displacement (competition with SDF-1 for CXCR4), Table C-3
T4 construct: whole, on cells; Same receptor used on cells, on VLPs and in membrane extracts; also called hCXCR4; human chemokine receptor CXCR4

human CXCR4 [2] = molecular target: T4, human CXCR4; assay: cell-based or functional assay
human CXCR4 [3] = molecular target: T4, human CXCR4; assay: binding to Caki-CXCR4 cells, Table C-3
human CXCR4 [4] = molecular target: T4, human CXCR4; assay: binding to CXCR4 VLP, Table C-3
mouse CXCR4 = molecular target: T5, mouse CXCR4 (mouse, UniProt P70658 1-359); assay: binding FACS on murine BaF-3 cells, anti-myc detection
T5 construct: whole, on cells; also called mCXCR4
T5 sequence (P70658 whole entry): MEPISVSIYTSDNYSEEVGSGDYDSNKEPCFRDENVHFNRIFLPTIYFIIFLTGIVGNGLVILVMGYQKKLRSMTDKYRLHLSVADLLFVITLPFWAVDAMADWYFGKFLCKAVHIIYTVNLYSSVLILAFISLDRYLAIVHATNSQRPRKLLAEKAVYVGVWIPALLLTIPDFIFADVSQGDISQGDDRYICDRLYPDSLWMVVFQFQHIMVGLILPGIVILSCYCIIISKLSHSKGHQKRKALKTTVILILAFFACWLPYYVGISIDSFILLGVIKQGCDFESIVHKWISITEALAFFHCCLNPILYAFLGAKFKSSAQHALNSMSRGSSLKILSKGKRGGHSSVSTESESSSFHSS

T4 sequence (P61073 whole entry): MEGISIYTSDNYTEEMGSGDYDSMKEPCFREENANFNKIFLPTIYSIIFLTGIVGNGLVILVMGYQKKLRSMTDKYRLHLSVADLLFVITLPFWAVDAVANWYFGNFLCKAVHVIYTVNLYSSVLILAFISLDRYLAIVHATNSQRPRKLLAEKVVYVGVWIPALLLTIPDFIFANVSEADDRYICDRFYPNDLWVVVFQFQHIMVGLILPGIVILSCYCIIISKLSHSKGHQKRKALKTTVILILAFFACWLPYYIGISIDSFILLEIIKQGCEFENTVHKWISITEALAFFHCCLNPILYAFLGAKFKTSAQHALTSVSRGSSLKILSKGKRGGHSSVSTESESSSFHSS
T3 sequence (P61073 whole entry F189V): as the sequence (P61073 whole entry) above, with F189V counted along it
T2 sequence (P61073 whole entry D187V): as the sequence (P61073 whole entry) above, with D187V counted along it
T1 sequence (P61073 whole entry V196E): as the sequence (P61073 whole entry) above, with V196E counted along it

Binder | binding result (CXCR4 V196E) | binding result (CXCR4 D187V) | binding result (CXCR4 F189V) | IC50 (human CXCR4 [1]) [nM] | Chemotaxis IC50 (M) +HSA (human CXCR4 [2]) [M] | Chemotaxis IC50 (M) -HSA (human CXCR4 [2]) [M] | Chemotaxis IC50 (nM) Jurkat (human CXCR4 [2]) | EC50 (human CXCR4 [3]) [nM] | EC50 (human CXCR4 [4]) [nM] | Chemotaxis Jurkat cells IC50 (M) n=1 (human CXCR4 [2]) [M] | Chemotaxis Jurkat cells IC50 (M) n=2 (human CXCR4 [2]) [M] | Chemotaxis Jurkat cells IC50 (M) n=3 (human CXCR4 [2]) [M] | cAMP inhibition assay IC50 (M) n=1 (human CXCR4 [2]) [M] | cAMP inhibition assay IC50 (M) n=2 (human CXCR4 [2]) [M] | binding result (mouse CXCR4)
4CXCR015H03 (VHH, also called 15H3; P4CXCR15H3; not shown: C-terminal c-myc tag and His6 tag) VHH: EVQLVESGGGSVQTGGSLRVSCAASGLSFNTYTMGWLRQAPGKEREFVAVINWNGDRTNYADSVKGRFSVSRDNAKNTVFLQMNSLRPEDTAVYYCAARPRFTAEPMTSRRYQYWGRGTQVTVSS | binds | binds | binds | – | – | – | – | – | – | – | – | – | – | – | –
4CXCR281E10 (VHH, Family member of 238D4 (family 17); also called P4CXCR281E10; not shown: C-terminal c-myc tag and His6 tag) VHH: EVQLVESGGGLVQAGGSLRLSCKASGGTFNNYAMGWFRRAPGKEREFVAAITRSGVRSGVSAIYGDSVKDRFTISRDNVKNTLYLQMNTLKPEDTAVYTCAASAIGSGALRRFEYDYSGQGTQVTVSS | – | – | – | 3.1 | 2.2e-09 | 2.08e-09 | 3.5 nM and 4.7 nM | 3.1 | – | – | – | – | – | – | –
4CXCR010E09 (VHH, Monovalent Nanobody from E. coli; also called 10E9; P4CXCR10E09; not shown: C-terminal c-myc tag and His6 tag) VHH: EVQLVESGGGLVQTGGSLRLSCAASGRTFSSYAMGWFRRAPGKEREFVATISWRGDRKYYSESVKDRFTIARGRSNKNAVYLQMNSLKPEDTAVYYCAKDRAPYGSGSPDVKQYEHWGQGTQVTVSS | – | – | – | 4.7 | 1.93e-09 | 3.29e-09 | 3.5 nM and 1.2 nM | 2.4 | 0.52 | – | – | – | – | – | –
4CXCR010G10 (VHH, Alexa-647 label in the competition FACS of D-2, also called P4CXCR10G10; not shown: C-terminal c-myc tag and His6 tag) VHH: EVQLVESGGGLVQAGGSLRLSCAASGRTFNSYAMAWFRQAPGKERENVAAIRWSGGRATKYADSVRGRFTISKDNAKNTVYLQMSSLKPEDTAVYYCATQTYYRSGLASTRDFDSWGQGTQVTVSS | – | – | – | 7.9 | 7.74e-10 | 4.11e-09 | 2.1 nM and 2.3 nM | 3.3 | 0.29 | 2.1e-09 | 2.3e-09 | 4.1e-09 | 1.6e-07 | 9.6e-07 | no binding
4CXCR015A01 (VHH, not shown: small tags and cut ends, also called 15A1; P4CXCR15A01) VHH: EVQLVESGGGLVQAGGSLRLSCAASGRTFSRAAMGWFRQAPGKEREFVGCALSSAGSALTADSVKGRFTISRDNAKNMVYLQMNNLKPEDTAVYSCVAGGYCTRAGVYPYWGQGTQVTVSS | – | – | – | 5.1 | 1.18e-09 | 1.7e-09 | – | – | 0.2 | – | – | – | – | – | –
4CXCR014A02 (VHH, also called 14A2; not shown: C-terminal c-myc tag and His6 tag) VHH: EVQLVESGGGLVQAGGSLRLSCVASGISSSIRNMGWYRQAPGKQRESVATISSGGNKDYTDAVKDRFTISRDTTKNTVYLQMSSLKPEDTAVYYCKIEAGTGWATRRGYTYWGQGTQVTVSS | – | – | – | 4.1 | – | – | – | 4 | 0.73 | 3.3e-09 | 8.1e-10 | – | 4e-07 | 2.5e-06 | –
4CXCR010E12 (VHH, also called P4CXCR10E12; not shown: C-terminal c-myc tag and His6 tag) VHH: EVQLVESGGGLVQAGGSLRLSCAVSGRTFTSYDMAWFRQAPGKERESVAAIRWTGSSTYYADSVKGRFTISRDNAKSTVYLQMNSLKPEDTAVYYCAARDTGRYRSRTYDYWGQGTQVTVSS | – | – | – | 3 | 1.12e-09 | 2.78e-09 | 3.5 nM and 1.4 nM | – | 0.22 | – | – | – | – | – | no binding
